Results: patent publication US20130089497A1 (Genentech, published 2013)

How the values were obtained:
[1] = target: T1, cynomolgus FcRH5 on stably transfected SVT2 cells (cynomologous monkey); assay: Scatchard analysis: 0.5 nM 125I-labeled antibody competed with the unlabeled antibody (50 to 0.02 nM) on SVT2.cyFcRH5 cells, 4 h at 4 C; St. Error 0.091
T1 construct: also called cyno FcRH5; cynoFcRH5
T1 chain: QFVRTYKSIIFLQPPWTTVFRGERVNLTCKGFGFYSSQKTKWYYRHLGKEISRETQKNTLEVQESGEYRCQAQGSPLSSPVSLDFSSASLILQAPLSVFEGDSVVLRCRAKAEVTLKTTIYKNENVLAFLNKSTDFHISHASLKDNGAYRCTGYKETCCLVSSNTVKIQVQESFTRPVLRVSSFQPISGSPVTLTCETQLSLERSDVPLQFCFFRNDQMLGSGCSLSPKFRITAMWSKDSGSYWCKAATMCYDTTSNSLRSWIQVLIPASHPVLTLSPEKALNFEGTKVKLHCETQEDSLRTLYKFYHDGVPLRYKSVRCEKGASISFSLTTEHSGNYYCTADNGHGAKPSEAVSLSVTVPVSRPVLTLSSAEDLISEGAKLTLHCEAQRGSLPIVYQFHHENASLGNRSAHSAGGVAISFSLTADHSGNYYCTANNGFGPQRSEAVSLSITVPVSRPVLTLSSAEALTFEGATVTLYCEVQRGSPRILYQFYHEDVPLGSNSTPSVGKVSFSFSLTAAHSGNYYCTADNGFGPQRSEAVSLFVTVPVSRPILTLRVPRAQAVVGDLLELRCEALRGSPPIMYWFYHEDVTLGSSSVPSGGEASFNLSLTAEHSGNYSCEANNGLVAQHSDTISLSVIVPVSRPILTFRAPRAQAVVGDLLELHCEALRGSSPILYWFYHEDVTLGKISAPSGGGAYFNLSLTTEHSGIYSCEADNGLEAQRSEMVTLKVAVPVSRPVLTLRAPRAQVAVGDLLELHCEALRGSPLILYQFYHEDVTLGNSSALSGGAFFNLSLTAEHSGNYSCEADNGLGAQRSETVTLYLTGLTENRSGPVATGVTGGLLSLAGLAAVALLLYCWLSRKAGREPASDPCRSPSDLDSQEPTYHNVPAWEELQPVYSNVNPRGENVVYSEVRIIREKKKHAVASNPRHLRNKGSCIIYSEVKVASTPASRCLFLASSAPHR
Experimental: To further determine binding of the FcRH5 murine antibodies and IgG clones, binding of iodinated IgG variants to OPM2 cells expressing human FcRH5 and SVT2 cells expressing cynomologous FcRH5, Scatchard analysis was performed (Table 9A).
For Scatchard analysis, 0.5 nM I¹²⁵ labeled murine or IgG clone anti-FcRH5 was competed against unlabeled murine or IgG clone anti-FcRH5, respectively, ranging from 50 to 0.02 nM (12 step 1:2 serial dilution) in the presence of a transfected OPM2 line stably expressing human-FcRH5 and a transfected SVT2 line stably expressing cynomologous-FcRH5. After a four hour incubation at 4° C., cells were washed and cell pellet counts were read by a gamma counter (1470 WIZARD Automatic Gamma Counter; Perkin Elmer, Walthem, Mass.). All points were done in triplicate and counted for 10 minutes. The average CPM was used for Kd calculation using the New Ligand (Genentech, South San Francisco, Calif.) program.

[2] = target: T2, gD tagged human FcRH1 on SVT2 cells (human, UniProt Q96LA6 17-429); assay: FACS, SVT2.MSCV.gD.FcRH1 cells, PE mu anti-human IgG
T2 construct: whole, on cells; also called huFcRH1; not shown: gD tag
T2 sequence (looked up): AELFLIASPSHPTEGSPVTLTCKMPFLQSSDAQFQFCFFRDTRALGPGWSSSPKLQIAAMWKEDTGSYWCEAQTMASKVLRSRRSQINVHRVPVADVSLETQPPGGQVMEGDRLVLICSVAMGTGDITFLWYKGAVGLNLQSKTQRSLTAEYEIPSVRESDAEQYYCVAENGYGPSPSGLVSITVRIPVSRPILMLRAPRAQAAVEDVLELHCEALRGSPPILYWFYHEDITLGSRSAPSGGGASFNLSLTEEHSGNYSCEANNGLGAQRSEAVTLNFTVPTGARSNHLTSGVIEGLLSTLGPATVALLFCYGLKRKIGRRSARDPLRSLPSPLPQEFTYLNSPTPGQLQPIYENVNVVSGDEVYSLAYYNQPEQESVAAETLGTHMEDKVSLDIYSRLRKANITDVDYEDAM

[3] = target: T3, gD tagged human FcRH3 on SVT2 cells (human, UniProt Q96P31 18-734); assay: FACS, SVT2.MSCV.gD.FcRH3 cells, PE mu anti-human IgG
T3 construct: whole, on cells; also called huFcRH3; not shown: gD tag; the construct for this FcRH is not described
T3 sequence (looked up): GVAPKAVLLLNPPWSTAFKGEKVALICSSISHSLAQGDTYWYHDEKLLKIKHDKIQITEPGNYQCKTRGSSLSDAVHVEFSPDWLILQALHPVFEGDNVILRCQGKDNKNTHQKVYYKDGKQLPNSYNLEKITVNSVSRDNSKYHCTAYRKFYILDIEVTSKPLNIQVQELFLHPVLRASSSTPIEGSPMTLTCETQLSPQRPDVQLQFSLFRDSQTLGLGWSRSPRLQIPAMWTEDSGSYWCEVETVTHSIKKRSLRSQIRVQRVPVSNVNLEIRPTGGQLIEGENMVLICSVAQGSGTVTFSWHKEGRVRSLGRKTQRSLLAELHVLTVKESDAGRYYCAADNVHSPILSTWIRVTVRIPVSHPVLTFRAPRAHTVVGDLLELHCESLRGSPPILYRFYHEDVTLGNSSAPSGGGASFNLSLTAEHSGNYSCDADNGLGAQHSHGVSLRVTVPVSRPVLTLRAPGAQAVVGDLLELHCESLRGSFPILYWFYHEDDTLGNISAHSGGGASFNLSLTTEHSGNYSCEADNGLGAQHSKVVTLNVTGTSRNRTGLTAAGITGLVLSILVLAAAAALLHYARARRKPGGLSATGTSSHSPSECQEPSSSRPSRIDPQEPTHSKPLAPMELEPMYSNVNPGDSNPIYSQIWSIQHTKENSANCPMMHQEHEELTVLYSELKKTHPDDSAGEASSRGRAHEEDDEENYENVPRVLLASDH

[4] = target: T4, gD tagged human FcRH4 on SVT2 cells (human, UniProt Q96PJ5 20-515); assay: FACS, SVT2.MSCV.gD.FcRH4 cells, PE mu anti-human IgG
T4 construct: whole, on cells; also called huFcRH4; IRTA1; not shown: gD tag; the construct for this FcRH is not described
T4 sequence (looked up): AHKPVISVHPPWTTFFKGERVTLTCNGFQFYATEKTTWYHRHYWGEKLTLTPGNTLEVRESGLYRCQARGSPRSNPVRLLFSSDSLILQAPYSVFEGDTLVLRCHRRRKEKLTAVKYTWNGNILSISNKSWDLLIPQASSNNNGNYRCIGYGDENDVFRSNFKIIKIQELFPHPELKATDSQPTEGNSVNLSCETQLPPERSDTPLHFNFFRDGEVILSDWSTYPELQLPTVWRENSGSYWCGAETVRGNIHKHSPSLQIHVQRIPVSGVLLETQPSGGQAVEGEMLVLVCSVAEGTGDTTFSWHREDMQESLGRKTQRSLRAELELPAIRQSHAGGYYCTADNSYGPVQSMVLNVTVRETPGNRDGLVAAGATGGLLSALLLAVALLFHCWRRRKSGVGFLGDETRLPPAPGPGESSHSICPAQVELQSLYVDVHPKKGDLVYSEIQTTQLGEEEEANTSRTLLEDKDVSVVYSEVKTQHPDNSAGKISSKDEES

[5] = target: T5, gD tagged human FcRH2 on SVT2 cells (human, UniProt Q96LA5 20-508); assay: FACS, SVT2.MSCV.gD.FcRH2 cells, PE mu anti-human IgG
T5 construct: whole, on cells; also called huFcRH2; not shown: gD tag; the construct for this FcRH is not described
T5 sequence (looked up): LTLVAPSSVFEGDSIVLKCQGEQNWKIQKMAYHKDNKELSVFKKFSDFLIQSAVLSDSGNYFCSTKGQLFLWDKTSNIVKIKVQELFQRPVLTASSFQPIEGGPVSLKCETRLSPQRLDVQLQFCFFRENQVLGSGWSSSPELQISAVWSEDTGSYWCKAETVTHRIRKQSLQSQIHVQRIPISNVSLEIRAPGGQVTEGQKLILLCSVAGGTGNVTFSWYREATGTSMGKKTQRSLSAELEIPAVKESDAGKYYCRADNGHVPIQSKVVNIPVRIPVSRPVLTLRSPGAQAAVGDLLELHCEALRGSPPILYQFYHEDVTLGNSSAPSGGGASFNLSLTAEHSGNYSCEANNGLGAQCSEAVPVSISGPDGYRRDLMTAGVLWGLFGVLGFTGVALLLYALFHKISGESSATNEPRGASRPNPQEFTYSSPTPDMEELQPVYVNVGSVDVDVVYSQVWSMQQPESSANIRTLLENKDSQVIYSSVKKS

[6] = target: T6, gD tagged human FcRH6 on SVT2 cells (human, UniProt Q6DN72 20-434); assay: FACS, SVT2.MSCV.gD.FcRH6 cells, PE mu anti-human IgG
T6 construct: whole, on cells; also called huFcRH6; not shown: gD tag; the construct for this FcRH is not described
T6 sequence (looked up): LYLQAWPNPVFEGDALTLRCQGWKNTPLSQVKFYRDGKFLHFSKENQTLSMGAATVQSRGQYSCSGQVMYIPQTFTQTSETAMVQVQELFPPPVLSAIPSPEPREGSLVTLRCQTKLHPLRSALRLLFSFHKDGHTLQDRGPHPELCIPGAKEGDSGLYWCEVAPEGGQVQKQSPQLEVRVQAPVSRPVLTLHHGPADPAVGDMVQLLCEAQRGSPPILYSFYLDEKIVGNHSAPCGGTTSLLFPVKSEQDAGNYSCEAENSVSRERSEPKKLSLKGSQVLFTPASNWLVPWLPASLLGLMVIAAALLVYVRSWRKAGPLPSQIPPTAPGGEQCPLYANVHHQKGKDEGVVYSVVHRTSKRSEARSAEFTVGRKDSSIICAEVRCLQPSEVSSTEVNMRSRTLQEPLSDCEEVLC

B1: chimeric anti-human FcRH5 antibody 13G9 (antibody, human IgG1, kappa)
heavy: not shown
light: DIVMTQSQKIMSTSVGDRVNVTCKASQNVGSNVAWYHQKPGQSPKALIYSASYRYSGVPDRFTGSGSGTDFTLTISNVQSEDLAEYFCQQYKTWTFGGGTKLEIKRTVAAPSVFIFPPSDEQLKSGTASVVCLLNNFYPREAKVQWKVDNALQSGNSQESVTEQDSKDSTYSLSSTLTLSKADYEKHKVYACEVTHQGLSSPVTKSFNRGEC
notes: Expressed in 293 cells; also called ch13G9; chMAFcRH5 (13G9)
In the case of B1, the Kd [1] is reported as 1.08 nM.

B2: chimeric anti-human FcRH5 antibody 7D11 (antibody, human IgG1, kappa)
heavy: not shown
light: DILLTQSPAILSVSPGERVSFSCRSSQSIGTNIHWYQQRTNGSPRLLIKFASESLSGIPSRFSGSGSGTDFTLSINSVESEDFADYYCQQSNSWPLTFGAGTKVEIKRTVAAPSVFIFPPSDEQLKSGTASVVCLLNNFYPREAKVQWKVDNALQSGNSQESVTEQDSKDSTYSLSSTLTLSKADYEKHKVYACEVTHQGLSSPVTKSFNRGEC
notes: Mouse/human chimeric IgG1 kappa expressed in 293 cells; also called ch7D11; Ch anti-FcRH5 (7D11)
B2: no binding (tested: 1.0 ug per about 10^6 cells (p-1120)) [2]; no binding (tested: 1.0 ug per about 10^6 cells (p-1120)) [3]; no binding (tested: 1.0 ug per about 10^6 cells (p-1120)) [4]. B2: no binding (tested: 1.0 ug per about 10^6 cells (p-1120)) [5]; no binding (tested: 1.0 ug per about 10^6 cells (p-1120)) [6].
